The assay deals with PIFtide (24 residue synthetic peptide encompassing the PDK1 binding site on PIF) (human). Briefly: method not stated.
Chain of PIFtide (24 residue synthetic peptide encompassing the PDK1 binding site on PIF) (human) (peptide, as listed by the source): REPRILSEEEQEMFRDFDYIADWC

For “GST-PDK1[K115A] (from UniProt O15530 1-556) (enzyme)”, the fold decrease in affinity (against wild type PDK1) worked out at 10 fold.
